Results from publication doi:10.1101/219105.

Assays:
[1] = target: Asp1/2/3 complex (without a tag) (Streptococcus gordonii) (UniProt Q9AET8); test: light scattering
[2] = target: Asp1, untagged, as co-expressed with Asp3 and tagged Asp2 (Streptococcus gordonii) (UniProt Q9AET8); test: light scattering

Sequence of UniProt Q9AET8 (Q9AET8 whole entry): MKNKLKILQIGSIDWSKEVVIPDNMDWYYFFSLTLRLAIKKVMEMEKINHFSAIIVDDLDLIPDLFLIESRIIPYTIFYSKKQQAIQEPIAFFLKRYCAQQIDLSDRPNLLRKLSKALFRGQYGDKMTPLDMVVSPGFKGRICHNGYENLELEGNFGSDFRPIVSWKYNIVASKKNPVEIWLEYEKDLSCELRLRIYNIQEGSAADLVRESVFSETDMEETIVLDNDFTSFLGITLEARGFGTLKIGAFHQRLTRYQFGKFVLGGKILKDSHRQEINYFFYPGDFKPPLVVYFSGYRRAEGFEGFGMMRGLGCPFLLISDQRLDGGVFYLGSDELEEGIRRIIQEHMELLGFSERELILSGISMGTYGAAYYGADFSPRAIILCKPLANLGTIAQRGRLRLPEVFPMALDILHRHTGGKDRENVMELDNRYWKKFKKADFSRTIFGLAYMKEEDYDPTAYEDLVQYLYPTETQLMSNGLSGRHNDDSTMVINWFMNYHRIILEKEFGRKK

Substance | stoichiometry N [1] | stoichiometry N [2]
Asp1/2/3 complex (without a tag) (from UniProt Q9AET8 1-510) | 2 | –
Asp3 (accessory Sec protein 3) (natural protein) | – | 1
